B1: Bi-ScFv dVRC01-5X-PGT121 (bispecific antibody)
scFv: SLTQSPGTLSLSPGETAIISCRTSQYGSLAWYQQRPGQAPRLVIYSGSTRAAGIPDRFSGSRWGPDYNLTISNLESGDFGVYYCQQYEFFGQGTKVQVDIKGGGGSGGGGSGGGGSQVQLVQSGGQMKKPGESMRISCRASGYEFIDCTLNWIRLAPGKRPEWMGWLKPRGGAVNYARPLQGRVTMTRDVYSDTAFLELRSLTVDDTAVYFCTRGKNCDYNWDFEHWGRGTPVIVSSGGGGSGGGGSGGGGSGGGGSGGGGSSDISVAPGETARISCGEKSLGSRAVQWYQHRAGQAPSLIIYNNQDRPSGIPERFSGSPDSPFGTTATLTITSVEAGDEADYYCHIWDSRVPTKWVFGGGTTLTVLGGGGSGGGGSGGGGSQMQLQESGPGLVKPSETLSLTCSVSGASISDSYWSWIRRSPGKGLEWIGYVHKSGDTNYSPSLKSRVNLSLDTSKNQVSLSLVAATAADSGKYYCARTLHGRRIYGIVAFNEWFTYFYMDVWGNGTQVTVSSGSGHHHHHH
B2: 10E8 IgG (antibody, V domains shown)
VH: EVQLVESGGGLVKPGGSLRLSCSASGFDFDNAWMTWVRQPPGKGLEWVGRITGPGEGWSVDYAAPVEGRFTISRLNSINFLYLEMNNLRMEDSGLYFCARTGKYYDFWSGYPPGEEYFQDWGRGTLVTVSS
VL: SYELTQETGVSVALGRTVTITCRGDSLRSHYASWYQKKPGQAPILLFYGKNNRPSGVPDRFSGSASGNRASLTISGAQAEDDAEYYCSSRDKSGSRLSVFGGGTKLTVL

How the values were obtained:
[1] = molecular target: BG505 SOSIP.664 Env trimer (HIV-1); assay: negative stain EM of the complex, 6:1 molar ratio
[2] = molecular target: HIV-1 Env of virus strain 6471.V1.C16 (HIV-1); assay: cell-based or functional assay

| Binder | Bi-ScFvs bound per Env trimer (Bi-ScFv per Env trimer) [1] | IC50, neutralization of Env-pseudovirus on TZM-bl cells [2] [µg/mL] |
| --- | --- | --- |
| B1 | 3 |  |
| B2 |  | 4.98 |
